From PMC11078644, “Nesprin-2 is a novel scaffold protein for telethonin and FHL-2 in the cardiomyocyte sarcomere” (The Journal of Biological Chemistry, 2024) come the findings set out here.

In test [1] the target is nesprin-2, endogenous ~200 kDa band of neonatal rat heart and neonatal rat cardiomyocytes. Briefly: co-immunoprecipitation with telethonin antibody, Western blot densitometry. As to conditions: lysates harvested 48 h after adenoviral infection, n = 5, parent: est. 1.0, read off a plot.
For test [2], the target named is T1, His-telethonin (full length, pET DUET-1, N-terminal 6x Histidine tag), co-expressed with nesprin-2 SR51-53 (UniProt O15273 1-167).
T1 construct: telethonin, full length; printed mass 19 kDa; source: E. coli BL21(DE3)pLysS, co-expressed with nesprin-2 SR51-53, co-purified (His-trap, SEC); not shown: 6x His, N-terminal, kept
T1 sequence (looked up): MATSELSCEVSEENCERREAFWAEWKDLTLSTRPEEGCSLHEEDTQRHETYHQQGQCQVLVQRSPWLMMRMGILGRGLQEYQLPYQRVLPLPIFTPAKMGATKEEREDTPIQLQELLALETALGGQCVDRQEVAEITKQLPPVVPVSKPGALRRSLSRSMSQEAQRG
Description: SEC; His-telethonin and untagged nesprin-2 SR51-53 co-expressed in E. coli, His-trap, Superdex 200 16/60, then Superdex 75 10/300; 50 mM Tris/HCl pH 7.5, 150 mM NaCl, 100 mM βME; single peak at 10.29 ml, both proteins found by Western blot. As to conditions: both partners purified.

As to “HA-tagged WT telethonin expressed from adenovirus in neonatal rat cardiomyocytes (from UniProt O15273) S157A; S161A”, the ratio to parent in test [1] came to 4.8.

B1: nesprin-2 SR51-53 (no tag), co-expressed with His-telethonin (domain or fragment, human, UniProt Q8WXH0 6018-6354, looked up)
chain: KETFAFIQQLDKNMSNLRTWLARIESELSKPVVYDVCDDQEIQKRLAEQQDLQRDIEQHSAGVESVFNICDVLLHDSDACANETECDSIQQTTRSLDRRWRNICAMSMERRMKIEETWRLWQKFLDDYSRFEDWLKSAERTAACPNSSEVLYTSAKEELKRFEAFQRQIHERLTQLELINKQYRRLARENRTDTASRLKQMVHEGNQRWDNLQRRVTAVLRRLRHFTNQREEFEGTRESILVWLTEMDLQLTNVEHFSESDADDKMRQLNGFQQEITLNTNKIDQLIVFGEQLIQKSEPLDAVLIEDELEELHRYCQEVFGRVSRFHRRLTSCTPGL
notes: nesprin-2 giant, human, spectrin repeats 51-53, amino acids 6018-6354 of the full length of nesprin-2 giant; in CDF DUET-1 without a tag; printed mass 40.51 kDa; source: E. coli BL21(DE3)pLysS, co-expressed with His-telethonin, co-purified (His-trap, SEC)
With B1, in test [2], the “stoichiometry N” value was 1 nesprin-2 SR51-53 per telethonin.
